{
  "source": "paper PMC6586375",
  "biological_target": "His-tagged BspC labelled with the Monolith His-Tag Labeling Kit RED-tris-NTA 2nd Generation (Streptococcus agalactiae)",
  "experiment": "MST; labelled His-tagged BspC constant at 10 nM, vimentin titrated 1:1 in 16 steps from 20 μM to 0 μM; standard capillaries, Monolith NT.115 Pico, 20% excitation power, 40% MST power; three independent experiments",
  "data": [
    {"substance": "vimentin purchased from Novus Biologicals (from UniProt P08670 1-466) (natural protein)", "values": [
      {"measurement": "Kd", "result": 3.39, "unit": "µM"}
    ]}
  ]
}
